# IntAct's records for PubMed 29039417
# B1: Protein PTHB1 (Homo sapiens), Q3SYG4 (parent)
# chain: MSLFKARDWWSTILGDKEEFDQGCLCLANVDNSGNGQDKIIVGSFMGYLRIFSPHPAKTGDGAQAEDLLLEVDLRDPVLQVEVGKFVSGTEMLHLAVLHSRKLCVYSVSGTLGNVEHGNQCQMKLMYEHNLQRTACNMTYGSFGGVKGRDLICIQSMDGMLMVFEQESYAFGRFLPGFLLPGPLAYSSRTDSFLTVSSCQQVESYKYQVLAFATDADKRQETEQQKLGSGKRLVVDWTLNIGEQALDICIVSFNQSASSVFVLGERNFFCLKDNGQIRFMKKLDWSPSCFLPYCSVSEGTINTLIGNHNNMLHIYQDVTLKWATQLPHIPVAVRVGCLHDLKGVIVTLSDDGHLQCSYLGTDPSLFQAPNVQSRELNYDELDVEMKELQKIIKDVNKSQGVWPMTEREDDLNVSVVVSPNFDSVSQATDVEVGTDLVPSVTVKVTLQNRVILQKAKLSVYVQPPLELTCDQFTFEFMTPDLTRTVSFSVYLKRSYTPSELEGNAVVSYSRPTDRNPDGIPRVIQCKFRLPLKLICLPGQPSKTASHKITIDTNKSPVSLLSLFPGFASQSDDDQVNVMGFHFLGGARITVLASKTSQRYRIQSEQFEDLWLITNELILRLQEYFEKQGVKDFACSFSGSIPLQEYFELIDHHFELRINGEKLEELLSERAVQFRAIQRRLLARFKDKTPAPLQHLDTLLDGTYKQVIALADAVEENQGNLFQSFTRLKSATHLVILLIALWQKLSADQVAILEAAFLPLQEDTQELGWEETVDAAISHLLKTCLSKSSKEQALNLNSQLNIPKDTSQLKKHITLLCDRLSKGGRLCLSTDAAAPQTMVMPGGCTTIPESDLEERSVEQDSTELFTNHRHLTAETPRPEVSPLQGVSE
# partner: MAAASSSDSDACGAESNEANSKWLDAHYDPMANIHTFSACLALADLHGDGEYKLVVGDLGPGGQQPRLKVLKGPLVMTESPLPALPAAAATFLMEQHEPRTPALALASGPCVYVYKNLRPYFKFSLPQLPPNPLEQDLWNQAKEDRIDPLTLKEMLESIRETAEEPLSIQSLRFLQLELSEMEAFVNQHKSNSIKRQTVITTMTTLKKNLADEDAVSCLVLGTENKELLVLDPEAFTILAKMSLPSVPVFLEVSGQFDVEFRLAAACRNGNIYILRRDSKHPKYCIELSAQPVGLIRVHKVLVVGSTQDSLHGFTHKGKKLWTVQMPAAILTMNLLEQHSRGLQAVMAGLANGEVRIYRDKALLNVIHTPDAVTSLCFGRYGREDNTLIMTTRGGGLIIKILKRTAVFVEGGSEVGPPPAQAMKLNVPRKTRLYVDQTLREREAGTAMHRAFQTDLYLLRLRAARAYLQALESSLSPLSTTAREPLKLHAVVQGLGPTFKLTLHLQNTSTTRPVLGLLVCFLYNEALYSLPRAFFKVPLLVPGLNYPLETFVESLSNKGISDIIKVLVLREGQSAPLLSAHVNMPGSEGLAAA
# Variants of: B1
# Conditions: with bbs1_human BBS1, Q8NFJ9
row,Variant,effect of a mutation on the interaction
1,C469E,with no effect
2,C469K,with no effect
3,C469Y,disrupting interaction strength
4,D470A,with no effect
5,D470E,with no effect
6,D470K,with no effect
7,Q471A,with no effect
8,Q471E,with no effect
9,Q471K,with no effect
10,F472A,with no effect
11,F472E,with no effect
12,F472K,with no effect
13,T473A,with no effect
14,T473E,with no effect
15,T473K,with no effect
16,F474A,with no effect
17,F474E,with no effect
18,F474K,with no effect
19,E475A,with no effect
20,E475K,with no effect
21,F476A,with no effect
22,F476E,with no effect
23,F476K,with no effect
24,M477A,with no effect

row,Variant,effect of a mutation on the interaction
1,M477E,with no effect
2,M477K,with no effect
3,T478A,with no effect
4,T478E,with no effect
5,T478K,with no effect
6,P479A,with no effect
7,P479E,with no effect
8,P479K,with no effect
9,D480A,with no effect
10,D480E,with no effect
11,D480K,with no effect
12,L481A,with no effect
13,L481E,with no effect
14,L481K,with no effect
15,T482A,with no effect
16,T482E,with no effect
17,T482K,with no effect
18,T482P,disrupting interaction strength
19,R483A,with no effect
20,R483E,with no effect
21,R483K,with no effect
22,T484A,with no effect
23,T484E,with no effect
24,T484K,with no effect

row,Variant,effect of a mutation on the interaction
1,V485A,with no effect
2,V485E,with no effect
3,V485K,with no effect
4,S486A,with no effect
5,S486E,with no effect
6,S486K,with no effect
7,F487A,with no effect
8,F487E,with no effect
9,F487K,with no effect
10,S488A,with no effect
11,S488E,with no effect
12,S488K,with no effect
13,V489A,with no effect
14,V489E,with no effect
15,V489K,with no effect
16,Y490A,with no effect
17,Y490E,with no effect
18,Y490K,with no effect
19,L491A,with no effect
20,L491E,with no effect
21,L491K,with no effect
22,K492A,with no effect
23,K492E,with no effect
24,R493A,with no effect

row,Variant,effect of a mutation on the interaction
1,R493E,with no effect
2,R493K,with no effect
3,S494A,with no effect
4,S494E,with no effect
5,S494K,with no effect
6,Y495A,with no effect
7,Y495E,with no effect
8,Y495K,with no effect
9,T496A,with no effect
10,T496E,with no effect
11,T496K,with no effect
12,P497A,with no effect
13,P497E,with no effect
14,P497K,with no effect
15,S498A,with no effect
16,S498E,with no effect
17,S498K,with no effect
18,E499A,with no effect
19,E499K,with no effect
20,L500A,with no effect
21,L500E,with no effect
22,L500K,with no effect
23,E501A,with no effect
24,E501K,with no effect

row,Variant,effect of a mutation on the interaction
1,G502A,with no effect
2,G502E,with no effect
3,G502K,with no effect
4,G502R,disrupting interaction strength
5,N503A,with no effect
6,N503E,with no effect
7,N503K,with no effect
8,A504E,with no effect
9,A504K,with no effect
10,V505A,with no effect
11,V505E,with no effect
12,V505K,with no effect
13,V506A,with no effect
14,V506E,with no effect
15,V506I,disrupting interaction strength
16,V506K,with no effect
17,S507A,with no effect
18,S507E,with no effect
19,S507F,disrupting interaction strength
20,S507K,with no effect
21,Y508A,with no effect
22,Y508E,with no effect
23,Y508K,with no effect
24,S509A,with no effect

row,Variant,effect of a mutation on the interaction
1,S509E,with no effect
2,S509K,with no effect
3,R510A,with no effect
4,R510E,with no effect
5,R510K,with no effect
6,P511A,with no effect
7,P511E,with no effect
8,P511K,with no effect
9,T512A,with no effect
10,T512E,with no effect
11,T512K,with no effect
12,D513A,with no effect
13,D513E,with no effect
14,D513K,with no effect
15,R514A,with no effect
16,R514E,with no effect
17,R514K,with no effect
18,N515A,with no effect
19,N515E,with no effect
20,N515K,with no effect
21,P516A,with no effect
22,P516E,with no effect
23,P516K,with no effect
24,D517A,with no effect

row,Variant,effect of a mutation on the interaction
1,D517E,with no effect
2,D517K,with no effect
3,G518A,with no effect
4,G518E,with no effect
5,G518K,with no effect
6,I519A,with no effect
7,I519E,with no effect
8,I519K,with no effect
9,P520A,with no effect
10,P520E,with no effect
11,P520K,with no effect
12,R521A,with no effect
13,R521E,with no effect
14,R521K,with no effect
15,R521T,disrupting interaction strength
16,V522A,with no effect
17,V522E,with no effect
18,V522K,with no effect
19,I523A,with no effect
20,I523E,with no effect
21,I523K,with no effect
22,Q524A,with no effect
23,Q524E,with no effect
24,Q524K,with no effect

row,Variant,effect of a mutation on the interaction
1,C525A,with no effect
2,C525E,with no effect
3,C525K,with no effect
4,K526A,with no effect
5,K526E,with no effect
6,F527A,with no effect
7,F527E,with no effect
8,F527K,with no effect
9,R528A,with no effect
10,R528E,with no effect
11,R528K,with no effect
12,L529A,with no effect
13,L529E,with no effect
14,L529K,with no effect
15,P530A,with no effect
16,P530E,with no effect
17,P530K,with no effect
